Biological target: the molecule itself
Assay: crystal structure; GapA crystals from PACT G2 (0.2 M sodium bromide, 0.1 M Bis Tris propane 7.5, 20% PEG 3350), grown at 22°C, soaked with about 10 mM acP for less than 30 sec; data at 100 K

B1: glyceraldehyde-3-phosphate dehydrogenase (GapA) from E. coli (enzyme, E. coli K-12, UniProt P0A9B2 1-331, looked up)
chain: MTIKVGINGFGRIGRIVFRAAQKRSDIEIVAINDLLDADYMAYMLKYDSTHGRFDGTVEVKDGHLIVNGKKIRVTAERDPANLKWDEVGVDVVAEATGLFLTDETARKHITAGAKKVVMTGPSKDNTPMFVKGANFDKYAGQDIVSNASCTTNCLAPLAKVINDNFGIIEGLMTTVHATTATQKTVDGPSHKDWRGGRGASQNIIPSSTGAAKAVGKVLPELNGKLTGMAFRVPTPNVSVVDLTVRLEKAATYEQIKAAVKAAAEGEMKGVLGYTEDDVVSTDFNGEVCTSVFDAKAGIALNDNFVKLVSWYDNETGYSNKVLDLIAHISK
modifications: acetyl-lysine at K46, K249, K257 and K116 after the acP soak of the crystals (not in all molecules of the asymmetric unit)
notes: glyceraldehyde-3-phosphate dehydrogenase GapA, E. coli K-12, ORF of the gene from the ASKA clone; The crystals were grown from unmodified protein and acetylated by a soak with acP of under 30 sec; source: E. coli BL-21 (DE3) Magic cells, ASKA clone in pCA24N, purified
stoichiometry N: 4
